Here are results for 2 substances from PMC4838890, “Dynamic and flexible H3K9me3 bridging via HP1β dimerization establishes a plastic state of condensed chromatin” (Nature Communications, 2016).

In experiment [1] the test system is H3K9me3 oligonucleosomes. Put plainly: Chromatin sedimentation (clustering), H3K9me3 oligonucleosomes. It counts as biochemical, Xenopus laevis. To be noted: for chromatin clustering/aggregation, H3K9me3: saturating protein (5 μM) or titration, EtBr fluorescence, n=3. The protocol:
Figure 3 hHP1β clusters oligonuclesomal arrays in dependence of H3K9me3. (a) Oligonucleosomes (2.5 nM) were incubated with increasing concentrations of hHP1β WT or I161A at 150 mM NaCl. DNA remaining in the supernatant after centrifugation was incubated with EtBr and measured by fluorescence reading. Data were normalized to amounts in absence of added protein. Averages of three independent experiments are plotted; error bars represent s.d.; n=3. (b) Analysis of the hydrodynamic radius of oligonucleosomes (10 nM; DNA labelled with ATTO 610) in the presence of increasing concentrations of hHP1β WT or I161A by FCS at 150 mM NaCl. For details on experimental setup see Supplementary Fig. 3. Error bars represent s.d.; n=3. (c) Oligonucleosomes were reconstituted after mixing H3K9me0 and H3K9me3 octamers at different ratio. Chromatin precipitation analysis at 150 mM NaCl was carried out with hHP1β WT at saturating concentration. Data are presented as in a. (d) Precipitation behaviour of oligonucleosomes (2.5 nM) was analysed at different concentrations of NaCl with hHP1β WT at saturating concentration. Data are presented as in a. (e) H3K9me3-containing chromatin was reconstituted using wild-type core histones or tailless H2A, H2B or H4. Oligonucleosomes (2.5 nM) were incubated with increasing concentrations of hHP1β WT at 150 mM NaCl. Data are presented as in a. (f) Chromatin coprecipitation of hHP1β with H3K9me3-containing oligonucleosomes reconstituted with wild-type or tailless core histones at the indicated concentrations of MgCl2. Precipitated material was analysed by western blotting. The region of the western blot membrane of the experiment at 7.5 mM MgCl2 containing histones was stained with Ponceau. (g) Oligonucleosomes at 50 mM NaCl were incubated with hHP1β WT or I161A. Complexes were fixed with 0.05% (v/v) glutaraldehyde, spotted on mica surfaces and analysed by scanning force microscopy. Control, no protein added; scale bar, 100 nm. (h) Quantification of results representatively shown in g according to the classification on the top: A, extended; B, partially condensed; C, fully condensed; D; aggregates; n>50 for each condition.
For saturating conditions, 2.7 nM oligonucleosomes were incubated with 5 μM hHP1β proteins in 100 μl sedimentation buffer (10 mM triethanolamine (pH 7.5), 150 mM NaCl, 0.1 mM EDTA) for 1 h on ice. For non-saturating conditions, 3 μM recombinant proteins were used and the NaCl concentration in the sedimentation buffer was lowered to 100 mM. After incubation, 40 μl per sample was placed into a well of a 96-well plate and kept as ‘input'. The rest was centrifuged at 16,100g for 30 min at 4°C. 40 μl supernatant was carefully removed and placed into a 96-well plate (‘output'). For quantification of chromatin DNA, the input and output samples were incubated with 40 μl 0.5 μg ml^−1 ethidium bromide and fluorescence was measured on a Plate CHAMELEON II fluorescence plate reader (Hidex, Turku, Finland) using a 360 nm (±5 nm) excitation filter and a 612 nm (±5 nm) emission filter. For each sample the ratio of DNA concentrations after and before centrifugation (output/input) was calculated.
Supplementary Table 1: Summary of conditions used in the different experiments of this study. experiment result modification template Temp. [NaCl] [MgCl2] […]
chromatin Fig. 1e,f; Fig. S1f-h; H3K9me3 oligo- 4 150 5 coprecipitation Fig. S2b nucleosomes
Fig. S7d,f; Fig.S9c nucleosomes […]
chromatin sedimentation Fig. 4a; H3K9me3 oligo- 4 150 0
(single point) Fig. S3b nucleosomes […]
chromatin sedimentation. oligo-(titration) Fig. 3a H3K9me3 nucleosomes 4 150 0 […]
crosslinking Fig. S6e,f nucleosomes […]
crosslinking Fig. S7a,b nucleosomes
EMSA Fig. 1g; Fig. 5c; n//a RT 100 5
1Preincubation of oligonucleosomes and h HP1β was performed at 4 °C . Measurements wer e carried out at the in dicated te mperature.
2in increments o f 0 .5 mM
3MgCl2 was added at the end of incubation to coprecipitate oligonucleosomes a nd bound hHP1β.

Experiment [2] has as its target T1, H3K9me3 peptide (Homo sapiens, UniProt P68431).
T1 construct: C-terminally biotinylated histone H3 peptides (aa 1–20)
Put plainly: ITC, H3K9me3 peptide. The experiment is classed as binding. The following applies: for Kd / N (stoichiometry of interaction): ITC; for Kd: 10 mM triethanolamine pH 7.5, 0.1 mM EDTA, 25°C, read-out: Kd (apparent dissociation constant); for N (stoichiometry of interaction): pH 7.5, 25°C. The protocol:
ITC measurements were performed on a iTC200 calorimeter (Microcal, Malvern, UK) at 25°C in binding buffer (10 mM triethanolamine (pH 7.5), 20 or 150 mM NaCl, 0.1 mM EDTA). Reaction heats were recorded by sequences of 37 injections of 1.8 mM hHP1β, spaced at 120 s intervals, into 250 μl of 60 μM H3 peptides, nucleosomes or oligonucleosomal arrays under constant stirring at 1,000 r.p.m. (injection #1–10: 0.5 μl each; injection #11–32: 1 μl each; injection #33–37: 2 μl each). Heats of dilution, obtained by the titration of hHP1β into buffer, were substracted from raw data before analysis. Raw data were integrated, normalized and the apparent heat change (Δq) of the reaction was plotted against the molecular ratio using the Origin software. For the determination of apparent enthalpy changes (ΔHapp), the molar association constant (KA), and the stoichiometry (n) of the interaction, non-linear least-square fitting of the Δq values was performed by the Origin software using a binding model of one set of identical binding sites.
Figure S4 Hiragami-Hamada et al. […]
Supplementary Figure 4: Quantitative analysis of interaction of hHP1β with H3K9me3-peptides and
(a) ITC measurements of H3K9me3-peptide/hHP1β WT interaction at 20 mM NaCl (left) and 150 mM
NaCl (right). Upper panels, raw data of heat release upon stepwise injection of recombinant protein into
solution of peptide; lower panels, plots of integrated heats of protein injections vs. molar ratio of hHP1β
WT per peptide calculated by MicroCal software. Injections #1-10: 0.5 µl; injections #11-32: 1 µ l; […]
On the technique in general: In ITC the heat of successive injections is recorded.

Read-outs that look alike come from different tables or passages of the source.

For the substance “hHP1β WT: recombinant human heterochromatin protein 1β (GenBank NM_001127228), 185 aa”, in experiment [1] (150 mM NaCl), the “concentration sufficient for maximal chromatin clustering” value was found to be 5 µM and the “chromatin clustering/aggregation, H3K9me3” value is “efficiently aggregated H3K9me3”. In addition, in experiment [1] (150 mM NaCl, 4°C, read-out: half-maximal effect, chromatin precipitation assay), the EC50 came out at 400 nM. In addition, the “salt concentration above which hHP1β induces clustering” value in experiment [1] (salt titration, saturating hHP1β WT, 2.5 nM oligonucleosomes) is listed as “above 50 mM NaCl”. Besides, the reversibility of aggregation result in experiment [1] (stepwise precipitation and resolubilization) is given as “generally reversible”. Moreover, in experiment [2] (20 mM NaCl), the Kd was found to be 1400 ± 600 nM and the “N (stoichiometry of interaction)” value turned out to be 0.9±0.0. In experiment [2] (150 mM NaCl), the Kd amounted to 3300 ± 200 nM and the “N (stoichiometry of interaction)” value stood at 1.0±0.0.
For the substance “hHP1β I161A: CSD point mutant of hHP1β incapable of dimerization”, the “chromatin clustering/aggregation, H3K9me3” value is recorded as “failed to induce the aggregation of oligonucleosomes” in experiment [1] (150 mM NaCl) and “neither the I161A mutant, nor the isolated CD or CSD had any effect on modified or unmodified chromatin” in experiment [1] (150 mM NaCl, listed as I161A). In addition, the figures for the Kd in experiment [2] (20 mM NaCl) and in experiment [2] (150 mM NaCl) were 1100 ± 500 nM and 3400 ± 200 nM, respectively. For the same substance, the “N (stoichiometry of interaction)” value is reported as 1.0±0.1 in experiment [2] (20 mM NaCl) and 0.9±0.0 in experiment [2] (150 mM NaCl). Besides, the “binding to H3K9me3 peptide relative to WT” value in experiment [2] (Table 1) is given as “bound an H3K9me3-peptide as efficiently as hHP1β wild type”.
